Key:
Test in all cases: co-IP
[1] = target: PfGAPM1-HA (P. falciparum) (UniProt Q8IE80)
[2] = target: PfGAPM2-GFP (P. falciparum) (UniProt Q8IFN1)
[3] = target: PfGAPM3-HA (P. falciparum)

Substance	percent of the protein in the sample that was precipitated [1]	percent of the protein in the sample that was precipitated [2]	percent of the protein in the sample that was precipitated [3]	percent of the total ALV in the sample that was precipitated [1]	percent of the total ALV in the sample that was precipitated [2]	percent of the total ALV in the sample that was precipitated [3]
PfGAP50 (natural protein)	< 10%	< 10%	< 10%	–	–	–
PfALV4 (natural protein)	–	–	–	17%	26%	16%
PfGAP45 (from UniProt Q8I5I8 1-204) (natural protein)	–	–	< 10%	–	–	–
